Assay results as given in patent US20040018971A1 (published 2004).
Where no end group is shown, it is not given here. [ ]: non-standard residue; d: D form. Abu = CC[C@H](N)C(=O)O

B1: HER2/neu peptide, position 883, 9 amino acids (peptide)
peptide: KVPIKWMAL
notes: Synthetic peptide; also called KVPIKWMAL
B2: Her2/neu.218.B3B7K9 (peptide)
peptide: TVBAGGBAK
modifications: B at positions 3 and 7 = alpha-amino butyric acid (in place of cysteine)
notes: synthetic analog peptide; also called TVBAGGBAK

The binders below were run against T1, HLA-A*0101 (human) (assay: competition with 125I-labelled probe peptide for purified HLA-A*0101, gel filtration).
T1 construct: also called HLA-A1

| Binder | relative binding ratio |
| --- | --- |
| FSPAFDNLY [HER2/neu peptide, position 1213, 9 amino acids] | 0.043 ratio (IC50 of standard peptide / IC50 of test peptide) |
| LIQRNPQLCY [HER2/neu peptide, position 154, 10 amino acids] | 0.03 ratio (IC50 of standard peptide / IC50 of test peptide) |
| ELHCPALVTY [HER2/neu peptide, position 265, 10 amino acids] | 0.0015 ratio (IC50 of standard peptide / IC50 of test peptide) |
| TLEEITGYLY (also called Her2/neu.402) [HER2/neu peptide, position 402, 10 amino acids] | 1.1 ratio (IC50 of standard peptide / IC50 of test peptide) |
| RLLDIDETEY [HER2/neu peptide, position 868, 10 amino acids] | 1.3 ratio (IC50 of standard peptide / IC50 of test peptide) |
| ELMTFGAKPY [HER2/neu peptide, position 914, 10 amino acids] | 0.0082 ratio (IC50 of standard peptide / IC50 of test peptide) |
| PLTCSPQPEY [HER2/neu peptide, position 1130, 10 amino acids] | 0.0072 ratio (IC50 of standard peptide / IC50 of test peptide) |
| VVQGNLELTY [HER2/neu peptide, position 55, 10 amino acids] | 0.018 ratio (IC50 of standard peptide / IC50 of test peptide) |
| RVLQGLPREY [HER2/neu peptide, position 545, 10 amino acids] | 0.0015 ratio (IC50 of standard peptide / IC50 of test peptide) |
| YVMAGVGSPY [HER2/neu peptide, position 772, 10 amino acids] | 1.1 ratio (IC50 of standard peptide / IC50 of test peptide) |

What follows are binders tested against T2, HLA-A*0201 (human) (assay: competition with 125I-labelled probe peptide for purified HLA-A*0201, gel filtration).
T2 construct: Purified HLA class I molecule (MHC, no peptide specified); also called HLA-A2.1

| Binder | relative binding ratio |
| --- | --- |
| ILKETELRKV (Synthetic peptide) [HER2/neu peptide, position 714, 10 amino acids] | 0.0001 ratio (IC50 of standard peptide / IC50 of test peptide) |
| ILLVVVLGV (Synthetic peptide) [HER2/neu peptide, position 661, 9 amino acids] | 0.002 ratio (IC50 of standard peptide / IC50 of test peptide) |
| KIPVAIKVL (Synthetic peptide) [HER2/neu peptide, position 747, 9 amino acids] | 0.0002 ratio (IC50 of standard peptide / IC50 of test peptide) |
| KIRKYTMRRL (Synthetic peptide) [HER2/neu peptide, position 681, 10 amino acids] | 0.0001 ratio (IC50 of standard peptide / IC50 of test peptide) |
| KITDFGLARL (Synthetic peptide) [HER2/neu peptide, position 860, 10 amino acids] | 0.002 ratio (IC50 of standard peptide / IC50 of test peptide) |
| B1 | 0.0002 ratio (IC50 of standard peptide / IC50 of test peptide) |
| LAALCRWGLL (Synthetic peptide) [HER2/neu peptide, position 3, 10 amino acids] | 0.0022 ratio (IC50 of standard peptide / IC50 of test peptide) |
| LAVLDNGDPL (Synthetic peptide) [HER2/neu peptide, position 114, 10 amino acids] | 0.0002 ratio (IC50 of standard peptide / IC50 of test peptide) |
| LIAHNQVRQV (Synthetic peptide) [HER2/neu peptide, position 85, 10 amino acids] | 0.0001 ratio (IC50 of standard peptide / IC50 of test peptide) |
| LLALLPPGA (Synthetic peptide) [HER2/neu peptide, position 12, 9 amino acids] | 0.0008 ratio (IC50 of standard peptide / IC50 of test peptide) |
| LLALLPPGAA (Synthetic peptide) [HER2/neu peptide, position 12, 10 amino acids] | 0.0006 ratio (IC50 of standard peptide / IC50 of test peptide) |
| LLEDDDMGDL (Synthetic peptide) [HER2/neu peptide, position 1008, 10 amino acids] | 0.0001 ratio (IC50 of standard peptide / IC50 of test peptide) |
| LLGICLTSTV (Synthetic peptide) [HER2/neu peptide, position 785, 10 amino acids] | 0.049 ratio (IC50 of standard peptide / IC50 of test peptide) |

What follows are binders tested against HLA-B*5301 (human) (assay: competition with 125I probe peptide, purified HLA).

| Binder | IC50 [nM] |
| --- | --- |
| CPSGVKPDLSI (analog peptide) [Her2/neu.600.I11] | 344 |

These binders were tested against HLA-B*5101 (human) (assay: competition with 125I probe peptide, purified HLA).

| Binder | IC50 [nM] |
| --- | --- |
| CPSGVKPDLSI (analog peptide) [Her2/neu.600.I11] | 138 |

The binders below were run against HLA-B*0702 (human) (assay: competition with 125I probe peptide, purified HLA).

| Binder | IC50 [nM] |
| --- | --- |
| CPSGVKPDLSI (analog peptide) [Her2/neu.600.I11] | 290 |

What follows are binders tested against HLA-A*1101 (human) (assay: inhibition of 125I probe peptide binding to purified HLA).

| Binder | IC50 [nM] |
| --- | --- |
| IVKGGVLIQR (synthetic analog peptide) [Her2/neu.148.V2] | 7500 |
| TVCAGGCAR (synthetic peptide) [Her2/neu.218] | 261 |
| B2 | 29 |
| IVWLGLRSLK (synthetic analog peptide) [Her2/neu.450.V2K10] | 128 |

The binders below were run against HLA-A*3101 (human) in the same assay as above.

| Binder | IC50 [nM] |
| --- | --- |
| IVKGGVLIQR (synthetic analog peptide) [Her2/neu.148.V2] | 72 |

The binders below were run against HLA-A*0301 (human) in the same assay as above.

| Binder | IC50 [nM] |
| --- | --- |
| IVKGGVLIQR (synthetic analog peptide) [Her2/neu.148.V2] | 275 |
| B2 | 24 |
| IVWLGLRSLK (synthetic analog peptide) [Her2/neu.450.V2K10] | 3.9 |

Each binder was assayed against HLA-A*6801 (human) in the same assay as above.

| Binder | IC50 [nM] |
| --- | --- |
| IVKGGVLIQR (synthetic analog peptide) [Her2/neu.148.V2] | 29 |
| TVCAGGCAR (synthetic peptide) [Her2/neu.218] | 83 |
| B2 | 7.3 |
| IVWLGLRSLK (synthetic analog peptide) [Her2/neu.450.V2K10] | 12 |
